Source: the supplement of paper PMC10126150
± gives the standard deviation of the averaged measurements.

System: ATP
Experiment: switch fluorescence ratio, 500 uM ATP over buffer (Cy3 cluster intensity, sum of 5 cycles each) (fold (ratio)); higher = stronger signal-on switching upon ATP binding; sequences stand for … in TCGTCGGCAGCGTCAGATGTGTATAAGAGACAGTTTTTTTTTTTTTTTTTTTTTTTTT…TC
Settings: aptamer strand: ATP DNA aptamer (quencher-CACCTGGGGGAGTATTGCGGAGGAAGG + anchor), 100 nM annealed; ATP concentration: 500 uM
How it was run: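 Switching-strand clusters labelled with Cy3 on a modified Illumina MiSeq flow-cell were annealed to 100 nM quencher-labelled ATP aptamer, imaged in selection buffer, and re-imaged after 15 min with 500 uM ATP at 22 °C. This was done over five cycles with NaOH stripping and re-annealing in between. The fluorescence ratio is summed target-cycle over summed buffer-cycle Cy3 intensity per cluster, averaged per switch-domain sequence, excluding clusters outside 100-1000 RFU.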
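Further: ATP exposure 15 min at 22 °C before imaging.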

Row | Sequence | switch fluorescence ratio
1 | ACCATCGTAG | 1.0191 ± 0.00047
2 | ACCATGACGG | 1.044 ± 0.0092
3 | ACCATGCGTT | 0.992 ± 0.03
4 | ACCATGGGCT | 0.974 ± 0.038
5 | ACCATGTACT | 1.07 ± 0.016
6 | ACCATTGGGG | 0.993 ± 0.031
7 | ACCATTTTTG | 0.985 ± 0.057
8 | ACCCAAACAA | 1.06 ± 0.028
9 | ACCCCGGTCT | 1.04 ± 0.011
10 | ACCCGAAGGC | 1.08 ± 0.043
11 | ACCCGAGCAC | 2.13 ± 0.054
12 | ACCCGCCTTT | 1.086 ± 0.0021
13 | ACCCGGGCAG | 1.049 ± 0.0047
14 | ACCCGGGGTC | 1 ± 0.053
15 | ACCCGTTGCC | 1.03 ± 0.057
16 | ACCCTCGGGG | 1.0015 ± 0.00096
17 | ACCCTCTGGG | 1.01 ± 0.021
18 | ACCCTGGACC | 1.066 ± 0.0086
19 | ACCCTGTGTA | 1 ± 0.021
20 | ACCCTTCCAA | 1.72 ± 0.072
21 | ACCCTTTTAC | 1.13 ± 0.052
22 | ACCGAATGTT | 0.999 ± 0.022
23 | ACCGAGGCTT | 1.45 ± 0.051
24 | ACCGCTCGAA | 1.15 ± 0.056
25 | ACCGCTGTGG | 1.06 ± 0.019
26 | ACCGGCCCGG | 0.9848 ± 0.0085

Row | Sequence | switch fluorescence ratio
27 | ACCGGCGGTT | 1.01 ± 0.032
28 | ACCGGCGTTT | 1.05 ± 0.051
29 | ACCGGGGGCT | 1.034 ± 0.0052
30 | ACCGGGGGGT | 1.37 ± 0.22
31 | ACCGGGGTTA | 0.986 ± 0.033
32 | ACCGGTGTTC | 1.021 ± 0.0069
33 | ACCGTCTGTA | 1.014 ± 0.0058
34 | ACCGTGGCGT | 1.0212 ± 0.001
35 | ACCGTTTTTT | 1 ± 0.017
36 | ACCTAACACG | 1.19 ± 0.037
37 | ACCTAGTGTG | 1.135 ± 0.0024
38 | ACCTATGGGA | 1 ± 0.028
39 | ACCTCAGCTT | 1.48 ± 0.021
40 | ACCTGACTTG | 1.06 ± 0.014
41 | ACCTGAGGGG | 1.024 ± 0.0035
42 | ACCTGGGTGG | 1.03 ± 0.036
43 | ACCTTATATA | 1.056 ± 0.0094
44 | ACCTTCGTTG | 1.22 ± 0.003
45 | ACCTTGGGGA | 1.25 ± 0.4
46 | ACCTTTTAAG | 1.23 ± 0.3
47 | ACCTTTTAGG | 0.965 ± 0.036
48 | ACGAAAGTCA | 1.052 ± 0.01
49 | ACGAACAGTT | 1.15 ± 0.047
50 | ACGAAGATGC | 1.24 ± 0.15
51 | ACGAAGGCTA | 1.14 ± 0.028
52 | ACGAAGGGGG | 1.14 ± 0.24

Row | Sequence | switch fluorescence ratio
53 | ACGAAGGTCG | 1.03 ± 0.059
54 | ACGACGTTGA | 1.07 ± 0.032
55 | ACGACTGCGT | 1.0213 ± 0.00018
56 | ACGACTTTTT | 1.03 ± 0.063
57 | ACGAGAAGTT | 1.1 ± 0.073
58 | ACGAGCCTAG | 1.33 ± 0.058
59 | ACGAGCGTGG | 1 ± 0.011
60 | ACGAGGATGC | 1.09 ± 0.024
61 | ACGAGGGGGG | 1.02 ± 0.02
62 | ACGAGGTTCT | 1.016 ± 0.003
63 | ACGAGTCTGC | 0.96588 ± 0.00086
64 | ACGAGTGGGC | 1 ± 0.063
65 | ACGAGTGTCG | 0.964 ± 0.04
66 | ACGATAGAGG | 1.14 ± 0.015
67 | ACGATCAAGG | 1.13 ± 0.024
68 | ACGATCAGCG | 1.022 ± 0.0037
69 | ACGATCATTT | 1.048 ± 0.0024
70 | ACGATCGAAA | 1.24 ± 0.019
71 | ACGATGAACG | 1.04 ± 0.021
72 | ACGATGAAGA | 1.009 ± 0.0026
73 | ACGATGATCT | 1.06 ± 0.019
74 | ACGATGGAAT | 1.45 ± 0.056
75 | ACGATTAGAC | 1.12 ± 0.029
76 | ACGATTGGTA | 1.03 ± 0.092
77 | ACGATTTGGT | 1 ± 0.013
78 | ACGATTTTAG | 1.04 ± 0.041

Row | Sequence | switch fluorescence ratio
79 | ACGATTTTTA | 1 ± 0.013
80 | ACGCCATTCT | 1.151 ± 0.0096
81 | ACGCCGTCGA | 1.035 ± 0.0099
82 | ACGCCTGGGC | 1.02 ± 0.023
83 | ACGCCTGGTC | 1.01 ± 0.059
84 | ACGCGACACC | 1.25 ± 0.058
85 | ACGCGGACGG | 1.05 ± 0.016
86 | ACGCGGAGAC | 1.24 ± 0.024
87 | ACGCTGTTGA | 1.03 ± 0.047
88 | ACGCTTGCTA | 1.02 ± 0.013
89 | ACGCTTTGCA | 0.987 ± 0.01
90 | ACGGAAAACA | 1.019 ± 0.0039
91 | ACGGAACAAG | 1.09 ± 0.12
92 | ACGGAAGTGC | 1.12 ± 0.036
93 | ACGGCACTCT | 1.55 ± 0.0028
94 | ACGGCATAAT | 1.11 ± 0.013
95 | ACGGCATTTG | 1.05 ± 0.024
96 | ACGGCTTTCG | 1.05 ± 0.097
97 | ACGGGAAGGC | 1.09 ± 0.035
98 | ACGGGAGCTT | 1.03 ± 0.041
99 | ACGGGATTAA | 1.04 ± 0.051
100 | ACGGGCCGGG | 1.02 ± 0.12
101 | ACGGGCGGCA | 1.16 ± 0.23
102 | ACGGGCGGTC | 1.01 ± 0.015
103 | ACGGGGCCGT | 0.985 ± 0.031
104 | ACGGGGGAAT | 0.991 ± 0.02

Row | Sequence | switch fluorescence ratio
105 | ACGGGGGAGC | 1.03 ± 0.043
106 | ACGGGGGGAA | 1.02 ± 0.019
107 | ACGGGGGTCC | 1.02 ± 0.025
108 | ACGGGGGTTA | 1.02 ± 0.024
109 | ACGGGGTCAG | 0.999 ± 0.026
110 | ACGGGTCCGG | 1.02 ± 0.011
111 | ACGGGTGGCT | 1 ± 0.014
112 | ACGGGTGGGG | 1.05 ± 0.051
113 | ACGGGTTAAT | 1.01 ± 0.026
114 | ACGGGTTAGA | 1.02 ± 0.036
115 | ACGGGTTGGG | 1.02 ± 0.017
116 | ACGGTCGGGC | 0.9775 ± 0.00067
117 | ACGGTCTTGG | 0.999 ± 0.015
118 | ACGGTGGGGA | 1.04 ± 0.036
119 | ACGGTGGGGG | 1.01 ± 0.025
120 | ACGGTGGGTA | 1 ± 0.038
121 | ACGGTGTATG | 0.989 ± 0.031
122 | ACGGTTCAAT | 1.05 ± 0.011
123 | ACGGTTGAG | 0.96 ± 0.036
124 | ACGTACACTT | 1.45 ± 0.074
125 | ACGTACCGGC | 1.31 ± 0.075
126 | ACGTATAGAA | 1.159 ± 0.0097
127 | ACGTATGAAA | 1.09 ± 0.059
128 | ACGTATGATA | 1.16 ± 0.056
129 | ACGTATGGCT | 0.973 ± 0.021
130 | ACGTATTACA | 1.83 ± 0.87

Row | Sequence | switch fluorescence ratio
131 | ACGTCCGATC | 1.11 ± 0.039
132 | ACGTCGTCGG | 0.964 ± 0.018
133 | ACGTCTATGT | 0.992 ± 0.0074
134 | ACGTGCCGGT | 0.99 ± 0.05
135 | ACGTGCGGAG | 1.01 ± 0.016
136 | ACGTGCGGGC | 1.05 ± 0.013
137 | ACGTGCTTAT | 0.976 ± 0.013
138 | ACGTGGGGGT | 1.01 ± 0.011
139 | ACGTGGGTAG | 0.987 ± 0.041
140 | ACGTGGTGTG | 1.015 ± 0.0075
141 | ACGTGGTTGA | 1.05 ± 0.026
142 | ACGTGTAAGC | 1.03 ± 0.035
143 | ACGTGTGGGC | 1.02 ± 0.017
144 | ACGTGTTTGT | 1.03 ± 0.018
145 | ACGTTAGGGA | 1.07 ± 0.091
146 | ACGTTATGCT | 1.17 ± 0.081
147 | ACGTTATGTG | 1.0491 ± 0.00035
148 | ACGTTCGTAC | 1.04 ± 0.012
149 | ACGTTGGCGT | 0.966 ± 0.041
150 | ACGTTGGGGC | 1.04 ± 0.027
151 | ACGTTGGGTC | 1.02 ± 0.06
152 | ACGTTGTTTG | 0.983 ± 0.02
153 | ACGTTTAGTG | 1.02 ± 0.016
